Experimental data taken from patent US20180155451A1 (published 2018).

T1: FcγRIIa R (human, UniProt P12318 34-217)
T1 construct: extracellular domain; also called FcgRIIa R; FcγRIIa type R
T1 sequence (looked up): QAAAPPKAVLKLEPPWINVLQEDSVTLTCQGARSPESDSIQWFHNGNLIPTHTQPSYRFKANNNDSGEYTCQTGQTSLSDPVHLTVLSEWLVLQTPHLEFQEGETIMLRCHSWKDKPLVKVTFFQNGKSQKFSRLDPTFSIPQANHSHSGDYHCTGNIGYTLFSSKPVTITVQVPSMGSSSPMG

T2: FcγRIIb (human, UniProt P31994 43-217)
T2 construct: extracellular domain; also called FcgRIIb
T2 sequence (looked up): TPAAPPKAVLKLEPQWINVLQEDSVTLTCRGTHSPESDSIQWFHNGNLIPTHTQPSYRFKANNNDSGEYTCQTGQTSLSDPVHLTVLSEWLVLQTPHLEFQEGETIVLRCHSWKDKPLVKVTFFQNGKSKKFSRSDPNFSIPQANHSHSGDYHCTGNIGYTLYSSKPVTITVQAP

T3: FcγRIIa R (human, UniProt P12318 34-217)
T3 construct: extracellular domain; Soluble extracellular domain with C-terminal His tag, expressed in FreeStyle293 cells; also called FcgRIIa R; FcγRIIa type R; not shown: His tag attached to the C terminus
T3 sequence (looked up): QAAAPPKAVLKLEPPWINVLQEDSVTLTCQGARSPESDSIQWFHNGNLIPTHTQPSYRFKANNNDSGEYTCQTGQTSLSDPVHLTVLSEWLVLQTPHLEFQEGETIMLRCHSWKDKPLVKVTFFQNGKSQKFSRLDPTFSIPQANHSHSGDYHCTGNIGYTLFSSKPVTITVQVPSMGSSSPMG


Experiments:
FcγRIIa R [1] = molecular target: T1, FcγRIIa R; assay: He/Con_2aR divided by He/Con_2b (FcγRIIa R over FcγRIIb); SPR (Biacore)
FcγRIIa R [2] = molecular target: T1, FcγRIIa R; assay: SPR (Biacore), captured antibody, FcγR analyte; binding relative to GpH7-A5/GpH7-B3/GpL16-k0 = 100
FcγRIIb = molecular target: T2, FcγRIIb; assay: as above
FcγRIIa R [3] = molecular target: T3, FcγRIIa R; assay: SPR (Biacore), antibody captured via antigen peptide, FcγRIIa R as analyte; homodimerized antibody
Procedure: Analysis of interaction between objective antibody and the FcγR was carried out using Biacore T100 (GE Healthcare). HBS-EP+ (GE Healthcare) was used as the running buffer, and the measurement temperature was set to 25° C. Chips produced by immobilizing the antigen peptide by the amine coupling method to a Series S Sencor Chip CM5 (GE Healthcare), or alternatively, chips produced by allowing preliminarily biotinylated antigen peptides to interact with and immobilize onto a Series S Sensor Chip SA (certified) (GE Healthcare) were used. Antibodies of interest were captured onto an antigen peptide-immobilized chip, and allowed to interact to each FcγR diluted with running buffer. To regenerate and repeatedly use the chip, the antibodies captured on the chip were washed off by reacting 10 mM glycine-HCl, pH 1.5.

Binder	IIaR/IIb (He_2aR/2b) (FcγRIIa R [1]) [ratio]	He/Con_2aR (IIaR binding) (FcγRIIa R [2]) [control=100]	He/Con_2b (IIb binding) (FcγRIIb) [control=100]	Ho/Con_2aR (FcγRIIa R [3])
GpH7-A5/GpH7-B3 variant Y300_05P/GpL16-k0 (antibody, human IgG1, kappa, He Ab; IgG1; mutation in one H chain only) heavy 1: not shown heavy 2: not shown light: DIVMTQSPLSLPVTPGEPASISCQASESLVHSNRNTYLHWYLQKPGQSPQLLIYKVSNRFSGVPDRFSGSGSGTDFTLKISRVEAEDVGVYYCSQNTHVPPTFGQGTKVEIERTVAAPSVFIFPPSDEQLKSGTASVVCLLNNFYPREAKVQWKVDNALQSGNSQESVTEQDSKDSTYSLSSTLTLSKADYEKHKVYACEVTHQGLSSPVTKSFNRGEC	1.47	10.8	7.3	–
GpH7-A5/GpH7-B3 variant Y300_12R/GpL16-k0 (antibody, human IgG1, kappa, He Ab; IgG1; mutation in one H chain only) heavy 1: not shown heavy 2: not shown light: DIVMTQSPLSLPVTPGEPASISCQASESLVHSNRNTYLHWYLQKPGQSPQLLIYKVSNRFSGVPDRFSGSGSGTDFTLKISRVEAEDVGVYYCSQNTHVPPTFGQGTKVEIERTVAAPSVFIFPPSDEQLKSGTASVVCLLNNFYPREAKVQWKVDNALQSGNSQESVTEQDSKDSTYSLSSTLTLSKADYEKHKVYACEVTHQGLSSPVTKSFNRGEC	1.34	55.1	41.2	–
GpH7-A5/GpH7-B3 variant Y300_18N/GpL16-k0 (antibody, human IgG1, kappa, He Ab; IgG1; mutation in one H chain only) heavy 1: not shown heavy 2: not shown light: DIVMTQSPLSLPVTPGEPASISCQASESLVHSNRNTYLHWYLQKPGQSPQLLIYKVSNRFSGVPDRFSGSGSGTDFTLKISRVEAEDVGVYYCSQNTHVPPTFGQGTKVEIERTVAAPSVFIFPPSDEQLKSGTASVVCLLNNFYPREAKVQWKVDNALQSGNSQESVTEQDSKDSTYSLSSTLTLSKADYEKHKVYACEVTHQGLSSPVTKSFNRGEC	1.21	100	82.7	–
GpH7-B3 variant T335_15Y/GpL16-k0 (antibody, human IgG1, kappa, homodimerized; mutation in both H chains; also called Ho Ab) heavy: not shown light: DIVMTQSPLSLPVTPGEPASISCQASESLVHSNRNTYLHWYLQKPGQSPQLLIYKVSNRFSGVPDRFSGSGSGTDFTLKISRVEAEDVGVYYCSQNTHVPPTFGQGTKVEIERTVAAPSVFIFPPSDEQLKSGTASVVCLLNNFYPREAKVQWKVDNALQSGNSQESVTEQDSKDSTYSLSSTLTLSKADYEKHKVYACEVTHQGLSSPVTKSFNRGEC	–	–	–	107 % of control (GpH7-B3/GpL16-k0 = 100)
GpH7-B3 variant G236_09D/GpL16-k0 (antibody, human IgG1, kappa, homodimerized; mutation in both H chains; also called Ho Ab) heavy: not shown light: DIVMTQSPLSLPVTPGEPASISCQASESLVHSNRNTYLHWYLQKPGQSPQLLIYKVSNRFSGVPDRFSGSGSGTDFTLKISRVEAEDVGVYYCSQNTHVPPTFGQGTKVEIERTVAAPSVFIFPPSDEQLKSGTASVVCLLNNFYPREAKVQWKVDNALQSGNSQESVTEQDSKDSTYSLSSTLTLSKADYEKHKVYACEVTHQGLSSPVTKSFNRGEC	–	–	–	107 % of control (GpH7-B3/GpL16-k0 = 100)
GpH7-B3 variant G236_10E/GpL16-k0 (antibody, human IgG1, kappa, homodimerized; mutation in both H chains; also called Ho Ab) heavy: not shown light: DIVMTQSPLSLPVTPGEPASISCQASESLVHSNRNTYLHWYLQKPGQSPQLLIYKVSNRFSGVPDRFSGSGSGTDFTLKISRVEAEDVGVYYCSQNTHVPPTFGQGTKVEIERTVAAPSVFIFPPSDEQLKSGTASVVCLLNNFYPREAKVQWKVDNALQSGNSQESVTEQDSKDSTYSLSSTLTLSKADYEKHKVYACEVTHQGLSSPVTKSFNRGEC	–	–	–	140 % of control (GpH7-B3/GpL16-k0 = 100)
GpH7-B3 variant H268_09D/GpL16-k0 (antibody, human IgG1, kappa, homodimerized; mutation in both H chains; also called Ho Ab) heavy: not shown light: DIVMTQSPLSLPVTPGEPASISCQASESLVHSNRNTYLHWYLQKPGQSPQLLIYKVSNRFSGVPDRFSGSGSGTDFTLKISRVEAEDVGVYYCSQNTHVPPTFGQGTKVEIERTVAAPSVFIFPPSDEQLKSGTASVVCLLNNFYPREAKVQWKVDNALQSGNSQESVTEQDSKDSTYSLSSTLTLSKADYEKHKVYACEVTHQGLSSPVTKSFNRGEC	–	–	–	157 % of control (GpH7-B3/GpL16-k0 = 100)
GpH7-B3 variant H268_10E/GpL16-k0 (antibody, human IgG1, kappa, homodimerized; mutation in both H chains; also called Ho Ab) heavy: not shown light: DIVMTQSPLSLPVTPGEPASISCQASESLVHSNRNTYLHWYLQKPGQSPQLLIYKVSNRFSGVPDRFSGSGSGTDFTLKISRVEAEDVGVYYCSQNTHVPPTFGQGTKVEIERTVAAPSVFIFPPSDEQLKSGTASVVCLLNNFYPREAKVQWKVDNALQSGNSQESVTEQDSKDSTYSLSSTLTLSKADYEKHKVYACEVTHQGLSSPVTKSFNRGEC	–	–	–	154 % of control (GpH7-B3/GpL16-k0 = 100)
GpH7-B3 variant H268_13S/GpL16-k0 (antibody, human IgG1, kappa, homodimerized; mutation in both H chains; also called Ho Ab) heavy: not shown light: DIVMTQSPLSLPVTPGEPASISCQASESLVHSNRNTYLHWYLQKPGQSPQLLIYKVSNRFSGVPDRFSGSGSGTDFTLKISRVEAEDVGVYYCSQNTHVPPTFGQGTKVEIERTVAAPSVFIFPPSDEQLKSGTASVVCLLNNFYPREAKVQWKVDNALQSGNSQESVTEQDSKDSTYSLSSTLTLSKADYEKHKVYACEVTHQGLSSPVTKSFNRGEC	–	–	–	135 % of control (GpH7-B3/GpL16-k0 = 100)
